As usually defined, the Ki is the dissociation constant of the complex between target and ligand, obtained from inhibition or displacement. A word on the Km: it is the substrate concentration at which the rate is half of its maximum. By kcat is commonly meant the number of substrate molecules converted per active site and unit of time at saturation. A word on the kcat/Km: it is the second-order rate constant that governs catalysis at low substrate concentration.

One data set addresses T1, AaOSBS (Alicyclobacillus acidocaldarius, UniProt Z9M799VK71).
T1 sequence (Z9M799VK71 4-380): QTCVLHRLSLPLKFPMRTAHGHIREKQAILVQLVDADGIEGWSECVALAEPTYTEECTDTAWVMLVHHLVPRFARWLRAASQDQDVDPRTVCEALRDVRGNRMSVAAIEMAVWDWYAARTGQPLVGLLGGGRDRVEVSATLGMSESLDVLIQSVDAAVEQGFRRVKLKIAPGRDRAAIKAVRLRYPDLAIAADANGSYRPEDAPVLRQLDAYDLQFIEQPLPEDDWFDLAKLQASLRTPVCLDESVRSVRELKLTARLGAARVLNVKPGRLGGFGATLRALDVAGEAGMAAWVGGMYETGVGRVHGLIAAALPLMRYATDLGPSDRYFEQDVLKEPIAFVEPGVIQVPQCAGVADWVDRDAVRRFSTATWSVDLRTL
As to the kind of experiment: inhibition of OSBS activity, SHCHC loss at […] nm. The data set is classed as biochemical.

Data set [1] has as its system O=C(O)CCC(=O)C1=CC=C[C@@H](O)[C@@H]1C(=O)O. As to the kind of experiment: purified protein. It is filed as biochemical, Alicyclobacillus acidocaldarius. The conditions noted are these: 50 mM Tris pH 8.0, 0.1 mM MnCl2, 25 °C.
Substrate in data set [2]: O=C(O)CCC(=O)C1=CC=C[C@@H](O)[C@@H]1C(=O)O
As to the kind of experiment: purified protein. The data set is classed as biochemical, Roseiflexus castenholzii. The conditions noted are these: 50 mM Tris pH 8.0, 0.1 mM MnCl2, 25 °C.

Substrate in data set [3]: O=C(O)CCC(=O)N[C@@H](C(=O)O)c1ccccc1
Briefly: purified protein. The conditions noted are these: 200 mM Tris pH 8.0, 0.1 mM MnCl2. It is filed as biochemical, Roseiflexus castenholzii.

Substrate in data set [4]: O=C(O)CCC(=O)C1=CC=C[C@@H](O)[C@@H]1C(=O)O
As to the kind of experiment: purified protein. The conditions noted are these: 50 mM Tris pH 8.0, 0.1 mM MnCl2, 25 °C. The data set is classed as biochemical, Amycolatopsis mediterranei.

Substrate in data set [5]: O=C(O)CCC(=O)N[C@@H](C(=O)O)c1ccccc1
Briefly: purified protein. The following applies: 200 mM Tris pH 8.0, 0.1 mM MnCl2. It is filed as biochemical, Amycolatopsis mediterranei.

For `O=C(O)CCC(=O)N[C@H](C(=O)O)c1ccccc1` [L-NSPG, N-succinyl-L-phenylglycine], on AaOSBS, the Ki worked out at 2.6 ± 0.4 mM.
Still for that read-out and setting: to `O=C(O)CCC(=O)N[C@@H](C(=O)O)c1ccccc1` [D-NSPG, N-succinyl-D-phenylglycine] belongs 3.6 ± 0.4 mM.
Regarding “AaOSBS (Alicyclobacillus acidocaldarius)”, in data set [1], the Km was found to be 118 ± 18 µM, the kcat is 64 ± 3 s⁻¹ and the kcat/Km came to 540000 M⁻¹ s⁻¹.

B1: RcNSAR/OSBS (Roseiflexus castenholzii DSM 13941) (protein)
chain: MKIESITLHHIDMPLVAPFETSFGRETHRPCILIEMRADGLTGWGECVAGAGPWYAYETIGTAWHIISDFLAPMIVGQEITEPIGIVERFASVRGHPMARAAVEAAFWDLYAQARGVSLARLIGATRDRVTVGVSVGIELTLEAQLASIERFVAAGYARIKLKIKPGWDVAVVRAVRERWPDIALQVDANSAYTPDDAPIFRELDEMNLLLIEQPLHHDDIVDHARLQAQISTPICLDESIHSPEHARWALDIDACRVINIKIGRVGGLTAARQIHDLCAERGVPVWCGGMLETNVGRAVNLALAALPNFALPGDISASARYYHRDIAAPDFVLNDDSTITVPDTPGTGVAVLPERLRDVQVREVIIGKG
As for B1, in the data set “purified protein [2]”, the Michaelis-Menten constant (Km) came to 155 ± 22 µM, the kcat was 38 ± 3 s⁻¹ and the catalytic efficiency (kcat/Km) was found to be 250000 M⁻¹ s⁻¹. Moreover, in the data set “purified protein [3]”, the Km was determined as 1800 ± 230 µM, the kcat turned out to be 15 ± 4 s⁻¹ and the kcat/Km came out at 8300 M⁻¹ s⁻¹.

B2: AmedNSAR (Amycolatopsis mediterranei S699) (protein)
chain: MKLTGVELLRVRMPLVAPFRTSFGTQAERELLLLRAVTSEGEGWGECGAMAGPLYSAEYIDGVEHVLQAFLVPALLAAGDLTAHKVAPLLAKFKGHRMAKAALEMAVLDAELRAHGLSFGTALGSTSDSVPCGVSVGIMDSIPQLVDVVGGYLDAGYLRIKLKIEPGWDVEPVRAVRERFGDDILLQVDANTAYTLSDVPQLQRLDPFGLLLIEQPLEEEDVLGHAELARHLRTPICLDETVVSAASAAAAIRLGACRIVNIKPSRVGGYLEARRVHDVCAAHGIPVWCGGMLETGLGRAANVALASLPGFTLPGDTSASDRFYRTDITEPFVLEAGRLPVPSGPGLGVTPIPERLAEVTTAKSWLA
Consider B2, for which, in “purified protein [4]”, the Km came to 415 ± 39 µM, the kcat turned out to be 242 ± 11 s⁻¹ and the kcat/Km stood at 580000 M⁻¹ s⁻¹. Moreover, in “purified protein [5]”, the Km came out at 2800 ± 550 µM, the kcat was 74 ± 7 s⁻¹ and the kcat/Km stood at 26000 M⁻¹ s⁻¹.

The record behind these values is publication PMC7187728 (Biochemistry, 2018).
